Literature values, collected in article PMC5694535.
pKd: −log10 of the molar value. Like-named read-outs stand apart in the source and are kept apart here. Blank lines part the entries; values can stand above or below the substance they belong to.

Assays:
AP2 beta2 appendage [1] = molecular target: AP2 beta2 appendage (UniProt P63010); test: ITC
Clathrin heavy chain TD [2] = molecular target: Clathrin heavy chain TD (UniProt P11442)
Clathrin heavy chain TD [3] = molecular target: Clathrin heavy chain TD (UniProt P11442); remark: listed apart in the source
AP2 beta2 appendage [4] = molecular target: AP2 beta2 appendage (UniProt P63010)

UniProt P11442, sequence (P11442 1-363): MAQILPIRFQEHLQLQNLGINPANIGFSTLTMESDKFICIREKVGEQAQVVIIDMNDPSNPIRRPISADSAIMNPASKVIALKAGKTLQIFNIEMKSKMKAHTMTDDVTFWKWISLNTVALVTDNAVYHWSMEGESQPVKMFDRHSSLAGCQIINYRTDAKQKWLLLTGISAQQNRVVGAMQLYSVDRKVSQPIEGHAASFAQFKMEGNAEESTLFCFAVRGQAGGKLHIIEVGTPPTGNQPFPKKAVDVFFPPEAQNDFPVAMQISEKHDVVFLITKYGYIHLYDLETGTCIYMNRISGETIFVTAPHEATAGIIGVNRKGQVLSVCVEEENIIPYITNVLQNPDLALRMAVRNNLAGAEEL
UniProt P63010, sequence (P63010 701-937): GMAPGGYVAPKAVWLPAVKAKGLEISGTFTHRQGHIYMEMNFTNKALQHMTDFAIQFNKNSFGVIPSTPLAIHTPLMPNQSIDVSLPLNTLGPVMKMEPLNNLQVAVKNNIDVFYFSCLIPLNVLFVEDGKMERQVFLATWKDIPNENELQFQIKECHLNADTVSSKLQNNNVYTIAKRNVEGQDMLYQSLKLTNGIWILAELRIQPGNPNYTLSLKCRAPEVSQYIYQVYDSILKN

pKd (AP2 beta2 appendage [1]): 5.59
Substance: beta-arrestin

pKd (Clathrin heavy chain TD [2]): 3.70
Substance: AP180 DLL/DLF motifs (from UniProt Q05140)

pKd (Clathrin heavy chain TD [3]): 3.07
Substance: AP180 peptide (from UniProt Q05140)

pKd (AP2 beta2 appendage [4]): 5.62
Substance: ARH peptide (from UniProt Q5SW96)
